Laboratory results reported in patent publication US20250206809A1 (UNIVERSITY OF MASSACHUSETTS, published 2025).

What was measured:
[1] = biological target: T1, CFA/I (adhesin CfaE) on ETEC strain H10407 (enterotoxigenic Escherichia coli strain …, UniProt P25734 1-360); assay: cell-based or functional assay
T1 sequence (looked up): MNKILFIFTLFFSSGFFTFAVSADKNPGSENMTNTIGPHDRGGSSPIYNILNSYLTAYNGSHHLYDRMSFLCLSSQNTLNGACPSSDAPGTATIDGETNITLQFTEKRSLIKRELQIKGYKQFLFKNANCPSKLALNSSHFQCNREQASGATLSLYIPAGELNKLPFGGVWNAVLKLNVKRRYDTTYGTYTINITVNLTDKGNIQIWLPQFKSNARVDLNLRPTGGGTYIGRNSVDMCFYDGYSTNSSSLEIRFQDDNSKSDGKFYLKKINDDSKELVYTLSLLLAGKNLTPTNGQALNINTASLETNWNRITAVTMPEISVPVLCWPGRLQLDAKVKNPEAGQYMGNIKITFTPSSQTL

CS4 on an ETEC strain = CS4 on an ETEC strain (enterotoxigenic Escherichia coli); assay: cell-based or functional assay
CS14 on an ETEC strain = CS14 on an ETEC strain (enterotoxigenic Escherichia coli); assay: cell-based or functional assay
CS1 on an ETEC strain = CS1 on an ETEC strain (enterotoxigenic Escherichia coli); assay: cell-based or functional assay
CS17 on an ETEC strain = CS17 on an ETEC strain (enterotoxigenic Escherichia coli); assay: cell-based or functional assay
CS19 on an ETEC strain = CS19 on an ETEC strain (enterotoxigenic Escherichia coli); assay: cell-based or functional assay
CS2 on an ETEC strain = CS2 on an ETEC strain (enterotoxigenic Escherichia coli); assay: cell-based or functional assay
CS3 on an ETEC strain = CS3 on an ETEC strain (enterotoxigenic Escherichia coli); assay: cell-based or functional assay
CS5 on an ETEC strain = CS5 on an ETEC strain (enterotoxigenic Escherichia coli); assay: cell-based or functional assay
CS6 on an ETEC strain = CS6 on an ETEC strain (enterotoxigenic Escherichia coli); assay: cell-based or functional assay
CS21 on an ETEC strain = CS21 on an ETEC strain (enterotoxigenic Escherichia coli); assay: cell-based or functional assay
[2] = biological target: T2, MBP-CfaE-N (recombinant N-terminal adhesin domain of CfaE fused to an MBP tag) (enterotoxigenic Escherichia coli, UniProt P0AEX9 27-392 = MBP, Biotinylated for SPR; FITC or Alexa Fluor labelled for yeast flow cytometry.); assay: SPR, Biacore T200, CfaE on CM5 chip, VHH injected, 25 °C, 1:1 model
T2 construct: It was used unlabelled in ELISA, 'biotinylated' on the chip in the SPR methods, and FITC/Alexa-labelled in yeast flow cytometry; also called recombinant N-terminal truncated CfaE protein; N-terminal truncation of CfaE; not shown: MBP tag and linker of vector pMAL-C5X, and the donor strand complement
T2 sequence: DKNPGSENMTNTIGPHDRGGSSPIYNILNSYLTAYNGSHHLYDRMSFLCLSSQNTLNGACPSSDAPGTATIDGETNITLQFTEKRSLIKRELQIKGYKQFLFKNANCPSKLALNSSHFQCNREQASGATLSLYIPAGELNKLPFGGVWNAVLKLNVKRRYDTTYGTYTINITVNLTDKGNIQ

CS19 = biological target: T3, CS19; assay: ELISA: plate coated with the recombinant antigen, purified VHH titrated (y axis printed as absorbance at 405, the text says OD450)
T3 construct: not the CS19 on an ETEC strain; also called recombinant CS19; N-terminal adhesin domain of CsdD with MBP tag; not shown: MBP tag from vector pMAL-C5X, with any linker or donor-strand complement
T3 chain: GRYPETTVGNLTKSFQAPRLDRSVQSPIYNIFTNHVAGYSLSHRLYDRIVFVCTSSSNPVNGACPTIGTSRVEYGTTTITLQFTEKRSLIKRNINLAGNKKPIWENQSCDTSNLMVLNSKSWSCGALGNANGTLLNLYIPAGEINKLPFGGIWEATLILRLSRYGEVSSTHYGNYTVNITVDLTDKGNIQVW

CS14 = biological target: T4, CS14; assay: as above
T4 construct: not the CS14 on an ETEC strain; also called recombinant CS14; N-terminal adhesin domain of CsuD with MBP tag; not shown: MBP tag from vector pMAL-C5X, with any linker or donor-strand complement
T4 chain: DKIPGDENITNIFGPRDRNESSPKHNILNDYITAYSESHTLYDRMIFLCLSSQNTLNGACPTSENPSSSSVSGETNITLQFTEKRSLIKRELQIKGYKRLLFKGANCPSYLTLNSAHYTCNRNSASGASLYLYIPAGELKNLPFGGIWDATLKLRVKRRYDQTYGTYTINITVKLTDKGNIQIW

B1: VHH antibody 1D7 (monomeric nanobody) (VHH)
VHH: EVQLVESGGGLVQAGGSLTLSCAASERTFSYYVMAWFRQAPGKEREFVAGISMSGDSTKYADSVKGRFTISRDNAENTGYLQMNGLKPEDTAVYYCAADRDIRGNFRSWGRGTQVTVSS
MRHA IC100 [1]: 100 µg/mL | MRHA IC100 (CS4 on an ETEC strain): 200 µg/mL | MRHA IC100 (CS14 on an ETEC strain): 100 µg/mL | MRHA IC100 (CS1 on an ETEC strain): 50 µg/mL | MRHA IC100 (CS17 on an ETEC strain): 6.25 µg/mL | MRHA IC100 (CS19 on an ETEC strain): 100 µg/mL | MRHA IC100 (CS2 on an ETEC strain): 50 µg/mL | MRHA IC100 (CS3 on an ETEC strain): 50 µg/mL | MRHA IC100 (CS5 on an ETEC strain): 3.12 µg/mL | MRHA IC100 (CS6 on an ETEC strain): 12.5 µg/mL | MRHA IC100 (CS21 on an ETEC strain): 25 µg/mL | Kd [2]: 17.7 nM | koff [2]: 0.0311 s⁻¹ | kon [2]: 1.75e+06 M⁻¹ s⁻¹

B2: VHH antibody 2R215 (monomeric nanobody) (VHH)
VHH: QVQLQESGGGLVQAGGSLRLSCAASGNIFQDAEMGWYRQAPGKEREFVATIAYGGNTNYADSVKGRFTISRDNAKNTVYLQMNSLKPEDTAVYYCAVYTGVYYDRTTGGYVAFEYWGQGTQVTVSS
notes: Yeast-library clone, expressed in the E. coli periplasm and purified by Ni-NTA; also called monomeric 2R215; monomeric VHH 2R215
MRHA IC100 [1]: 25 µg/mL | MRHA IC100 (CS4 on an ETEC strain): 100 µg/mL | MRHA IC100 (CS14 on an ETEC strain): 200 µg/mL | MRHA IC100 (CS1 on an ETEC strain): 200 µg/mL | MRHA IC100 (CS17 on an ETEC strain): 6.25 µg/mL | MRHA IC100 (CS19 on an ETEC strain): 200 µg/mL | MRHA IC100 (CS2 on an ETEC strain): 6.25 µg/mL | MRHA IC100 (CS3 on an ETEC strain): 100 µg/mL | MRHA IC100 (CS5 on an ETEC strain): 6.25 µg/mL | MRHA IC100 (CS6 on an ETEC strain): 25 µg/mL | MRHA IC100 (CS21 on an ETEC strain): 25 µg/mL | binding result (CS19): binds

B3: VHH antibody 2R23 (monomeric nanobody) (VHH)
VHH: QVQLQESGGGLVQAGGSLRLSCAASGYIFWSYGYMGWYRQAPGKERELVATISRGGTTNYADSVKGRFTISRDNAKNTVYLQMNSLKPEDTAVYYCAAGRYAFGYFKYWGQGTQVTVSS
notes: Yeast-library clone, expressed in the E. coli periplasm
MRHA IC100 [1]: 50 µg/mL | MRHA IC100 (CS4 on an ETEC strain): 25 µg/mL | MRHA IC100 (CS14 on an ETEC strain): 25 µg/mL | MRHA IC100 (CS1 on an ETEC strain): 200 µg/mL | MRHA IC100 (CS17 on an ETEC strain): 6.25 µg/mL | MRHA IC100 (CS19 on an ETEC strain): 200 µg/mL | MRHA IC100 (CS2 on an ETEC strain): 200 µg/mL | MRHA IC100 (CS3 on an ETEC strain): 100 µg/mL | MRHA IC100 (CS5 on an ETEC strain): 12.5 µg/mL | MRHA IC100 (CS6 on an ETEC strain): 12.5 µg/mL | MRHA IC100 (CS21 on an ETEC strain): 25 µg/mL | Kd [2]: 9.06 nM | koff [2]: 64.6 s⁻¹ | kon [2]: 7.13e+09 M⁻¹ s⁻¹ | binding result (CS14): binds

B4: VHH antibody 1H4 (monomeric nanobody) (VHH)
VHH: EVQLVESGGGLVQAGGSLRLSCAASSRTFNHYNIGWFRQAPGKEREFAAAITWNGRSTLYADSVKGRFTISRDNAKNTVYLQMNSLKPEDTAVYYCATLTTWEHKWEYNSQGQGTQVTVSS
MRHA IC100 [1]: 200 µg/mL | MRHA IC100 (CS4 on an ETEC strain): 25 µg/mL | MRHA IC100 (CS14 on an ETEC strain): 100 µg/mL | MRHA IC100 (CS1 on an ETEC strain): 100 µg/mL | MRHA IC100 (CS17 on an ETEC strain): 6.25 µg/mL | MRHA IC100 (CS19 on an ETEC strain): 100 µg/mL | MRHA IC100 (CS2 on an ETEC strain): 100 µg/mL | MRHA IC100 (CS3 on an ETEC strain): 100 µg/mL | MRHA IC100 (CS5 on an ETEC strain): 3.12 µg/mL | MRHA IC100 (CS6 on an ETEC strain): 25 µg/mL | MRHA IC100 (CS21 on an ETEC strain): 25 µg/mL
